The target of one experiment is GST-Beclin1 (human, UniProt Q14457 1-450). Kind of experiment: pull-down.
In experiment [1] the target is T1, His-PGK1 (wild type, not acetylated) (human, UniProt P00558 1-417).
T1 sequence: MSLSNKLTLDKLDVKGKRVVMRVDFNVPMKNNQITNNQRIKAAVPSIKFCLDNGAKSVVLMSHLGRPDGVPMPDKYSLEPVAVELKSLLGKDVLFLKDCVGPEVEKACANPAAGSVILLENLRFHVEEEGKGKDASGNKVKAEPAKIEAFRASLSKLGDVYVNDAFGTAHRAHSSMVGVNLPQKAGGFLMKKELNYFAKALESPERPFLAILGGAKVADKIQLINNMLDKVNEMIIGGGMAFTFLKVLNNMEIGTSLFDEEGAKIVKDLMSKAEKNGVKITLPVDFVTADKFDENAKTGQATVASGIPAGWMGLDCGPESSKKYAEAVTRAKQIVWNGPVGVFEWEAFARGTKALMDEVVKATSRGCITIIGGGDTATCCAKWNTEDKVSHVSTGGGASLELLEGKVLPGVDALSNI
Kind of experiment: pull-down.

Results on 3 molecules are retold here after PMC5389741 (Molecular cell, 2017).

Changes are numbered by the printed parent chain. In names and notes the source's numbering stands.

GST-Beclin1, sequence (Q14457 whole entry): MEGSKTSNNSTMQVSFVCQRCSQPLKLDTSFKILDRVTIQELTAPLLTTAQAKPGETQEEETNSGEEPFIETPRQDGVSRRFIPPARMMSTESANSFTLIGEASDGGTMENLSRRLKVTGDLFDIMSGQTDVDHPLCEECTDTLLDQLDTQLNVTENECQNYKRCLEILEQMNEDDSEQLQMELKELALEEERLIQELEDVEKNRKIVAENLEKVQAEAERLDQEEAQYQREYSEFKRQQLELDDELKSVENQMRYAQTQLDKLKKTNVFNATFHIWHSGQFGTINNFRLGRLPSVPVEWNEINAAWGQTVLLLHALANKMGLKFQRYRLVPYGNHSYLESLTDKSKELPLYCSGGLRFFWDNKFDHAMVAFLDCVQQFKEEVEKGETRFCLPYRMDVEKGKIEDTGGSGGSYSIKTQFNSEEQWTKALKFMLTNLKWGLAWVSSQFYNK

B1: His-PGK1 acetylated by Flag-ARD1 and Ac-CoA in vitro (enzyme, human)
chain: T1 sequence
modifications: acetyl-lysine at K388 (by ARD1 in vitro)
For B1, in the experiment with GST-Beclin1, the binding result was “binds”.

B2: GST-ARD1 (wild type) (enzyme, human, UniProt P41227 1-235, looked up)
chain: MNIRNARPEDLMNMQHCNLLCLPENYQMKYYFYHGLSWPQLSYIAEDENGKIVGYVLAKMEEDPDDVPHGHITSLAVKRSHRRLGLAQKLMDQASRAMIENFNAKYVSLHVRKSNRAALHLYSNTLNFQISEVEPKYYADGEDAYAMKRDLTQMADELRRHLELKEKGRHVVLGAIENKVESKGNSPPSSGEACREEKGLAAEDSGGDSKDLSEVSETTESTDVKDSSEASDSAS
On to B2, for which the binding result in experiment [1] is “binds”.

B3: GST-ARD1 S228A (enzyme, human, UniProt P41227 1-235, looked up)
chain: B2 chain with S228A
Turning to B3, in experiment [1], the binding result is recorded as “binds”.
